# Measurements taken from patent US11781164B2, “Demethylation of reticuline and derivatives thereof with fungal cytochrome P450” (priority 2017, dated 2023).
# B1: CYPDN11: cytochrome P450 homolog A0A068SB73 from Lichtheimia corymbifera, codon-optimized (protein, listed as Lichtheimia corymbifera)
# chain: MAVASPQIKNMVTMDRLQDIYSTVSQHVVAHASAVTSRQRKISISAAVALVAFYTVYKVVTPPANLRHIPSMGFFSYLNAFLRGKQLHDISKNVVLPHAVNVDNGVYLRFDILGWTVHIARPEAAKRFLLKSDIFPKADMISERGNTLFGKFVFNRNIVMLNGDDWKAQRKVANPAFHRAMPVELFGRLTQKTLKKMEEEMDGGTLNFHDITERYTLEVIGLAGFEFEFGAIENPKSEWVDRYQRLIEATFNPWFIAFPNLDMRYRFLFPSRKRLHREMDAFLDKMSQVITHKRELLNHQKTTVPESERDILTLMIEAEKNGEGSMTNEELQNNLLVFFIAGHDTTSLALSYAAYYLAVNPDVQRKAREEAIRVLGDAPEDVMPTVEQTRQLTYINMVIKETLRMSPPLATIPVREASEDTELCGTFIPKGTRTFLDIYEIQHNPTVWKDPETFKPERFKPGGEAEELAGSGMSWLPFSNGSRQCIGLNFSLVEQRVFLPMLLRKYEWHLPEDSIHKERIQTMGLAVIKPKDLKLTFKKRY
# B2: CYPDN10: cytochrome P450 homolog A0A0B7NB52 from Parasitella parasitica, codon-optimized (protein, listed as Parasitella parasitica)
# chain: MAIENFMQSYNRAIENVLPILRKRSKASYIGMAIMCIVIKQVYSAYSVPKHLQRFPKVSFLSMIRSYLIKEAVVERTKRLVTPLTDAGHGFYVCKIPLTWTVFVTDPIAAKTLLLKTEFFPKSHAFFDALGDNSPAVQFLGRENVAASNGEIWKKQRKFMNPAFLRSSPVKTFSSVTHNLIKVIETQSDAVPIANCMKAFTIDALGLSAFGFDFQSLNGDPEGWTETYNIAIAGLFDPFINIFVKVDFMMNYISSKRKRINKAITRFNSMLEDLANKRRQEILNGETLGVPENEKDLLTLMIEADIREGSRTTSTELRHNIALFFLAGHDTTAHTLAFCLYNLAKNKHVQAKARAEVLDILGDEPKDVDPTMEDLKRMDYLNMVIKENLRRCGPVDKLLSRDTAEDIDLNGTLIPKGQKISIDFNSIHMNPKLWHNPEEFVPERFEPGGEFDQHTGFTWLPFSHGSRQCIGMNFSLTEQKVLLSMICKRAIEEI
# B3: CYPDN8: cytochrome P450 homolog A0A0C7AZL4 from Rhizopus microsporus, codon-optimized (protein, listed as Rhizopus microsporus)
# chain: MDHLIQVYNSSTQVLIPVLQKRSKASYITAAIALIIAQRLYSYFRVPKHLRGFPKLPYFGIAKSFFAKESPRERVKKYILPIINERDGFYISNIPFGWMLYVTNPIAAKQILLKSNGFPKNHGLLEDMGENLFIEFIGKDNVVLTNGDTWKRQRKVMNPAFHHSLPIKTMSNVVFSLISVIDQANGTVPVASTMQNFTLDTLGLAIFGFDFKALQGDGDEWTKTYRLVSDCLFDPIINVFSSYSFIFDRIYPRRRRGAMATRKLGEKFLEIAQQKRMEIKSGAFADVPDNEKDLLTLMLEAEEKGDVWTSEDELRHNIAVLFLAGHDTTAHALSFCFYHLAKNKDIQQKLRKEVLDLLGDEPVDVVPTVEQLKDMQYLNMVIKENLRMNSPADMLFSRDVQEDIVLANTFIPKGTVISINIEALHCNPKLWHNPDQFDPERFAPGGEHEQHEGMTWLPFSNGTRQCLGMNFSLFEQRLVIAMILKKYEISIPEDSIHRNHIINDMPFNVAPKSLELTFTKRY
# modifications: codon-optimized
# B4: CYPDN9: cytochrome P450 homolog A0A1X2HQ99 from Syncephalastrum racemosum, codon-optimized (protein, listed as Syncephalastrum racemosum)
# chain: MFRPPAGLPKLPIINYFRLLWALYRKESPTRRSQRLILPALQKHNAKAYLAKVPYTWTVYLVDPVAVKTFLMRNGTFPKTMESIDAFDQSHPNVQFWGRENLGFSVGDSWKRQRKIIFPAFRRAMPVQLFGELVPKMFDLIDKEHSTIAIDLMQRFTLDALGLAAFSFDFHALDNHNNEWEVAYEMIRKELVSPLTNMLARYDYILKYIIPGRAEKQAAVSKINHLLSDIANERRKMIKRNPDMLKVPDSEKDLLTLMLESDLENSDDPASEELIRANLATFFLAGHDTTANTLSFWLYHLAMYKDIQKKAREEVIETMGGAPEDIVPTAEQLKKMKYMDCIIKENLRFMGPALELFPRIAKEDYNLNGIFIPKGTRVSVDLHTLHHHPDVWKEPERFDPLRFVENGEHSKHEGLSWIAFSSGARVCIGQNFSLVEQRVVMSMLLRRYEWDIPEDSIHREGLQLKDTNNQAPRSLEIVFKKRY
# modifications: codon-optimized
# B5: CYPDN17: cytochrome P450 homolog A0A2G4SQ34 from Rhizopus microsporus, codon-optimized (protein, listed as Rhizopus microsporus)
# chain: MDHLIQVYNSSTQVLIPVLQKRSKASYITAAIALIIAQRLYSYFRVPKHLRGFPKLPYFGIAKSLLTRESPRERVKKYVLPIIDENDGFYISKIPFGWMLYIANPVAAKQLLLKSSGFPKNHGLLDNMGENLFVEFIGKDNVALSNGDTWKRQRKVMNPAFHHSLPIKTMSKVVFSLISAIEQANGTIPVASAMQNFTLDTLGLAIFGFDFKALQGDPDEWTKTYRFVSDCIFDPVINVFSSYSFIIDRIYPRRRRGAIATKKLSEKFLKIAQQKRKEIKSGAYADVPDNEKDLLTLMLEAEEKGDTWTSEDELRHNIAILFVAGHDTTAHALSFCFYHLAKNKDVQQKLRKEVLSILGDKPVDVVPTVEQLKNMQYLNMVIKENLRINSPADMLFSRDVKEDTILANTLIPKGTVVTINIEALHYNPRLWHNPDQFDPERFAPGGEHEKHEGMTWLPFSNGTRQCLGMNFSLFEQRLVIAMILKKYEISIPEDSIHRDHIVSDIPFNGAPKSLKLTFTKRH
# B6: CYPDN14: cytochrome P450 homolog A0A168T1R5 from Absidia glauca, codon-optimized (protein, listed as Absidia glauca)
# chain: MPIVNALQTYSYEEPINFLKDVWLNRLFPAGTSNRKKAALLTLGATIALVCRTVYRLYRVPRSLRHIPAVGYVAMLRSILKREDATTRAMTIFQPAMKKGNGVFLVNFPLEWSIYVAEPLAAKAVLMKSDNFPKSIDFIHALGKENPVVKFFGTDNVALVNGEQWKRQRKVMNPAFHRAMPVQMFGRLLQKGFKNIEEQGHQVAALDFFQRLTLDALGHAVFGFDFGALNDREAVWTVTYESIRLNLRNPLAFAFPSMDWLLKYVIPGRLQMAASVDKLNGLMMDMIKEKRIKLLESQAQDDTPENEKDLLTLMLEAEQRGEGTTNDEELRSNMAVFFLAGHETTANTMSFCLYNLAMDKSVQEKARQEVIKVLGDEPEDVLPRNEELRQIPYLDMILKENLRRFGPASMLNARKTVEDFDMNGTFIPKNTSVIVETNALHHNPEVWKNPEQFDPERFAPGGEHETSHEGMAWLPFSSGSRGCLGMNFSMAEQRVFLAMLLRKYEWDLPKDSIHKNGIQIGNFQNACPDSLKIQFTPRY
# B7: CYPDN16: cytochrome P450 homolog A0A1X2HFU1 from Syncephalastrum racemosum, codon-optimized (protein, listed as Syncephalastrum racemosum)
# chain: MTQLTTPDTLGKLLAIYRQTPASRRASWIGWAVAATVIASQLYKTLVPPSNLPNLPTINYFRLLSSFLRRDSPTIRSQEILIPALEKHEQKKAYLAKLPLTWTVFLVDPIAAKIFLMKMDIFPKIKETIDALDSQHPIVEFFGRENVAISVGEAWRNQRKVMNPAFRRAMPISIFGNLMFKVFKNIEENKPVIAIDLMQAFTLDALGRAAFSFDFHALDDQHSIWVETYEIIRQSLRNPANAVLARYNFITKYLMPGRAKQKAATHKLNSLLLEMASRKRAELEKHPELRELPDSEKDLLTLMVEADMESGDDPTSAELLRANLSVFFLAGHDTTANTLSFWLYHMAVNKDVQAKAREEVIKILGDGPEDVMPTADQCKQMTYLDCIIKENLRLLGPASQLIPRMATEDVDLNGIFIPKGTRVTVDMHTMHYSPMLWKDPGVFKPDRFLDEGEHSQHRGLAWLPFSSGGRQCLGMNFSLTEQRVVMSMMLRKYTWELPADSIHRDGVKLNEVNTVAPRTLSIIFQQRYH
# B8: CYPDN13: cytochrome P450 homolog A0A1X2HZE4 from Absidia repens, codon-optimized (protein, listed as Absidia repens)
# chain: MGTSYKRKAAYVTIGAAVVLLFRSIYGFYYVPKSLRHLPCVGYRELAYSIMKREDAATRARSVLGQAIKEKNGAFVAKFPMEWTVFLTSPRTIQAVLLKSDKFPKTYDMFHALGESSPFVKFLGIKNVGFSNGDDWKRQRKVMNPAFQRSVPVEMFGKLMQKGILAIEKQGYEVRALDFFERITLDSIGIFLFSFDFGSLDNPNSVWSLTYDTIRRGIKNPALTVFPQLDCLLKYVTPGRRHLDQCVTKLNNLLMEVAKEKRRQVQSPSDKLIPDSEKDLLTLILEAELRGDGSASDEELRGNLALFFLAGHETTASAMCFCLYNLAMNKDIQEKARKEVLEVLGDEPVDVRPDIQDLKQFRYMDMILHENLRRFGPAAMLLPRKSEEDFVADGILIPKNTPVVIDLNTMHHNPQVWKDPEIFDPERFAPGGEYEANGEKMAWLPFSSGSRVCIGKSFSMAEQRVFLSMLLKKYEWDFPDDSIHRDGIKMENFENNAPESLSFRFHPRY
# B9: CYPDN12: cytochrome P450 homolog A0A1C7N669 from Choanephora cucurbitarum, codon-optimized (protein, listed as Choanephora cucurbitarum)
# chain: MFTETALQIYHQMAEKVLPILKRQPKSSYIGAALVFLLVAEIRRQLSVPKHLKKFPTIGVFTLMKSFMRNDSVIERHNRLVAPIVKQGHKFYAAKIPFDWSLSIVDPEIAKIMLMKSDAFPKSQGFTRKLGDSSLIVRFTGRDNVSISNGHVWKRQRKFMNPAFRRSTPIKTFGELTLKFFDCVDEQPQDFPAAIKLKNYTLDALGIAAFDFDFKSLSGDPEGWTEIYNVIMKGMFDPWVFLFGKMEFILQYIIPSKRECIKSVVKFNKMLVEMADKRRQEIQNGKKLNTPNSEKDLLTLMIEAEMEEGIMTTNEELRENIALFFLAGQDSTGNSLSFCLYHLAKNKHVQDKLRREIMSVMGDRDLDAIPTVEDFKDMPYLNMVIKENLRLSGPADRFLDRVVAEDIVLGGELIPKGTLITVDVASIHYNPEYWHDPEVFIPERFEPNGEFDQHAGVAWLPFSNGARQCIGMNFSLAEQRVFLTMLLRRYEVGISKDSIHYDSIVYEQSFTFAPSSLTLNFTKLN
# System: thebaine
# Assay: Demethylation of thebaine by new cytochrome P450 fungal and plant homologs co-expressed with CPRs in S. cerevisiae
# Conditions: 0.5 mM thebaine, SC or DELFT media pH 7, 72 h; for Northebaine production: 30° C., co-expressed with Cel_CPR_co, Tp_CPR_5866, Tp_CPR_DN10898 or POR1
molecule,measurement,value
B1,Northebaine production,+
B2,Northebaine production,+
B3,O-demethylation activity compared to the positive control Ps_CODM_co,substantially higher
same,"O-demethylation activity, converting thebaine to oripavine",display 0-demethylation activity
same,nororipavine production in the presence of thebaine,detected
same,Northebaine production,+
B4,Northebaine production,−
B5,O-demethylation activity compared to the positive control Ps_CODM_co,substantially higher
same,"O-demethylation activity, converting thebaine to oripavine",display 0-demethylation activity
same,nororipavine production in the presence of thebaine,detected
same,Northebaine production,+
B6,Northebaine production,+
B7,Northebaine production,+
B8,Northebaine production,+
B9,Northebaine production,+
